For 118 variants, abundance fitness results are on record in the Human Domainome abundance scans (Beltran et al. 2025).

± gives the uncertainty stated by the source.

Sequences and labels used below:
B1: F-BAR and double SH3 domains protein 1, residues 467 to 528; numbered along this chain, Q86WN1 (parent)
chain: RALPCPAHVVFRYQAGREDELTITEGEWLEVIEEGDADEWVKARNQHGEVGFVPERYLNFPD
B2: Cullin-9, residues 2234 to 2275; numbered along this chain, Q8IWT3 (parent)
chain: KRCPSCQAPIEKNEGCLHMTCAKCNHGFCWRCLKSWKPNHKD

In the first series the parent is B1. In words: abundance fitness (aPCA) (normalised: wild type 0, dead -1); higher = more abundant; growth selection in yeast, the domain comes from the species named. Particulars: Homo sapiens.
Consider F60W, for which the abundance fitness is -0.064 ± 0.051.
Still for that read-out and setting: next, F60M: -0.223 ± 0.079; F60K: -0.533 ± 0.1.
On to F60I, for which the abundance fitness was -0.154 ± 0.069.
On to F60A, for which the abundance fitness is -0.535 ± 0.086.
Same read-out and setting: next, F60Q: -0.778 ± 0.11; F60R: -0.329 ± 0.047; F60V: -0.157 ± 0.05.
As for F60E, the abundance fitness was -0.561 ± 0.1.
Turning to F60P, the abundance fitness was -0.466 ± 0.18.
Turning to F60D, the abundance fitness is -0.768 ± 0.33.
With F60G, the abundance fitness was -0.555 ± 0.063.
Regarding F60L, the abundance fitness is -0.213 ± 0.041.
Consider F60C, for which the abundance fitness was -0.275 ± 0.065.
Regarding F60N, the abundance fitness is -0.531 ± 0.16.
As for F60T, the abundance fitness was -0.499 ± 0.091.
Turning to Y57V, the abundance fitness stood at 0.103 ± 0.039.
Same read-out and setting: with Y57T the figure was 0.07 ± 0.052; with Y57R, -0.373 ± 0.071.
For the variant Y57S, the abundance fitness is 0.123 ± 0.058.
For the variant Y57Q, the abundance fitness is -0.292 ± 0.089.
On the same count and under the same terms, with Y57W the figure was -0.281 ± 0.11; with D62C, 0.111 ± 0.14.
As for D62G, the abundance fitness was -0.057 ± 0.089.
Still for that read-out and setting: next, D62R: -0.309 ± 0.15; D62P: -0.235 ± 0.082; D62L: -0.151 ± 0.053.
With D62F, the abundance fitness was -0.399 ± 0.11.
On the same count and under the same terms, with D62Q the figure was -0.276 ± 0.17; with D62I, -0.435 ± 0.12.
D62W: the abundance fitness is -0.356 ± 0.084.
Take D62Y: the abundance fitness is -0.17 ± 0.079.
Still for that read-out and setting: next, D62N: -0.201 ± 0.074; D62A: 0.012 ± 0.075.
The same measure, in the same setting: with D62K the figure was -0.148 ± 0.15; with D62M, -0.181 ± 0.18.
As to D62H, the abundance fitness was found to be 0.011 ± 0.13.
With D62T, the abundance fitness stood at 0.028 ± 0.079.
Turning to D62E, the abundance fitness is 0.114 ± 0.1.
Take D62S: the abundance fitness is 0 ± 0.056.
For N59S, the abundance fitness is -0.036 ± 0.042.
In the case of N59V, the abundance fitness was -0.078 ± 0.046.
On to N59I, for which the abundance fitness is -0.079 ± 0.075.
On to N59H, for which the abundance fitness worked out at 0.003 ± 0.086.
Still for that read-out and setting: with N59C the figure was -0.036 ± 0.093; with N59W, -0.242 ± 0.053.
As to N59L, the abundance fitness was -0.159 ± 0.035.
On to N59E, for which the abundance fitness came out at 0.028 ± 0.06.
In the case of N59T, the abundance fitness came out at 0.006 ± 0.058.
Take N59P: the abundance fitness was -0.977 ± 0.16.
Still for that read-out and setting: with N59A the figure was 0.054 ± 0.06; with N59R, 0.066 ± 0.043; with N59F, -0.091 ± 0.075.
On the same count and under the same terms, next, N59G: -0.096 ± 0.054.
As to N59M, the abundance fitness was -0.117 ± 0.057.
N59Q: the abundance fitness came out at 0.018 ± 0.053.
Turning to N59K, the abundance fitness is -0.005 ± 0.071.
On the same count and under the same terms, next, P61W: -0.174 ± 0.058; P61D: -0.007 ± 0.099.
P61A: the abundance fitness is -0.03 ± 0.065.
As to P61Y, the abundance fitness was -0.303 ± 0.17.
P61I: the abundance fitness is 0.091 ± 0.12.
Regarding P61V, the abundance fitness was 0.001 ± 0.073.
For the variant P61H, the abundance fitness was -0.249 ± 0.086.
Same read-out and setting: with P61E the figure was -0.111 ± 0.1; with P61N, -0.042 ± 0.096; with P61L, 0.004 ± 0.043.
With P61M, the abundance fitness is -0.088 ± 0.076.
Take P61S: the abundance fitness turned out to be 0.091 ± 0.052.
Turning to P61R, the abundance fitness was -0.09 ± 0.039.
As to P61Q, the abundance fitness turned out to be 0.081 ± 0.088.
Regarding P61K, the abundance fitness came to 0.026 ± 0.11.
The same measure, in the same setting: with P61G the figure was 0.042 ± 0.067; with L58C, -0.499 ± 0.078; with L58S, -0.65 ± 0.059.
L58K: the abundance fitness is -1.01 ± 0.29.
On to L58P, for which the abundance fitness was -0.946 ± 0.18.
Take L58R: the abundance fitness is -0.859 ± 0.061.
Still for that read-out and setting: with L58W the figure was -0.829 ± 0.07; with L58M, -0.574 ± 0.11.
For the variant L58I, the abundance fitness was -0.088 ± 0.08.
Turning to L58G, the abundance fitness is -0.73 ± 0.063.
As for L58N, the abundance fitness was -1.02 ± 0.46.
For the variant L58T, the abundance fitness was -0.602 ± 0.084.
For the variant L58E, the abundance fitness was -0.951 ± 0.18.
For the variant L58V, the abundance fitness is -0.267 ± 0.062.
For the variant L58Q, the abundance fitness is -0.819 ± 0.14.
With L58H, the abundance fitness was -1.12 ± 0.32.
On the same count and under the same terms, with L58A the figure was -0.743 ± 0.085; with L58F, -0.902 ± 0.14.

The variants in another series derive from B2. The description is as above. Particulars: Homo sapiens.
In the case of KRCPSCQAPIEKNEGCYHMTCAKCNHGFCWRCLKSWKPNHKD [L17Y], the abundance fitness amounted to 0.383 ± 0.29.
For the variant KRCPSCQAPIEKNEGCLHMTCAKCNHGFCWRCLKSWKPNHKE [D42E], the abundance fitness was -0.09 ± 0.13.
Turning to KRCPSCQAPIEKNEGCLHMTCAKCRHGFCWRCLKSWKPNHKD [N25R], the abundance fitness was -0.25 ± 0.081.
On the same count and under the same terms, next, KRCPSCQAPIETNEGCLHMTCAKCNHGFCWRCLKSWKPNHKD [K12T]: -0.046 ± 0.095; KHCPSCQAPIEKNEGCLHMTCAKCNHGFCWRCLKSWKPNHKD [R2H]: 0.104 ± 0.35.
In the case of KRCPSCQAPIEKNEGCLHMTCANCNHGFCWRCLKSWKPNHKD [K23N], the abundance fitness is -0.184 ± 0.23.
Regarding KRCPSCQAPIEKNEGCLHMTCAFCNHGFCWRCLKSWKPNHKD [K23F], the abundance fitness was 0.02 ± 0.22.
As for KRCPSCQAPIEKNEGCLHMTCADCNHGFCWRCLKSWKPNHKD [K23D], the abundance fitness is -0.239 ± 0.32.
For KRCPSCQAPIEKNEGCLHMTCAKCNHGFCWRCLKSWKANHKD [P38A], the abundance fitness is -0.114 ± 0.092.
On the same count and under the same terms, next, KRCPSCQAPIEKNEGCLHMTCAKCNHGFCWRCLKSWKPNTKD [H40T]: -0.359 ± 0.13; KRCPSCQRPIEKNEGCLHMTCAKCNHGFCWRCLKSWKPNHKD [A8R]: -0.153 ± 0.072; KRCPSCQAPIEKNEGCLHMTCAKCNHGFCWRQLKSWKPNHKD [C32Q]: -0.726 ± 0.12.
On the same count and under the same terms, with KRCPSCQAPIEKNERCLHMTCAKCNHGFCWRCLKSWKPNHKD [G15R] the figure was -0.096 ± 0.092; with KRCPSCQAPIEKNKGCLHMTCAKCNHGFCWRCLKSWKPNHKD [E14K], -0.473 ± 0.17.
With KRCPSCQAPIEKNEGCLHMTCAKCNHGFCWRCLKSWQPNHKD [K37Q], the abundance fitness turned out to be 0.121 ± 0.1.
Turning to KRCPSCQAPIEKNEGCLHMTCAKANHGFCWRCLKSWKPNHKD [C24A], the abundance fitness was -0.45 ± 0.094.
For the variant KRCPSCQAHIEKNEGCLHMTCAKCNHGFCWRCLKSWKPNHKD [P9H], the abundance fitness was -0.291 ± 0.16.
The same measure, in the same setting: next, KRCPSCQAPIEKNEGCLHMTCAKCNHKFCWRCLKSWKPNHKD [G27K]: 0.075 ± 0.14.
The same measure, in the same setting: next, ERCPSCQAPIEKNEGCLHMTCAKCNHGFCWRCLKSWKPNHKD [K1E]: -0.586 ± 0.11.
With KRCPSCQAPIEKNEGCLHMTCAKCNHGKCWRCLKSWKPNHKD [F28K], the abundance fitness is -0.288 ± 0.11.
Take KRCPSCQAPIEKNEGCLHMTCAKCNHGTCWRCLKSWKPNHKD [F28T]: the abundance fitness is -0.219 ± 0.1.
Take KRCPSCQAPIEKNEGCLHMTCAKCNHGQCWRCLKSWKPNHKD [F28Q]: the abundance fitness is 0.084 ± 0.11.
For the variant KRCPSGQAPIEKNEGCLHMTCAKCNHGFCWRCLKSWKPNHKD [C6G], the abundance fitness is -0.126 ± 0.079.
Still for that read-out and setting: with KRCPSKQAPIEKNEGCLHMTCAKCNHGFCWRCLKSWKPNHKD [C6K] the figure was -0.515 ± 0.19.
As to KRCPSCQAPIEKNEGCLCMTCAKCNHGFCWRCLKSWKPNHKD [H18C], the abundance fitness was -0.425 ± 0.14.
KRCPSCQAPIEKNEGCLHMTCAKCNHGFCCRCLKSWKPNHKD [W30C]: the abundance fitness was -1.09 ± 0.24.
With KRCPSCQAPIQKNEGCLHMTCAKCNHGFCWRCLKSWKPNHKD [E11Q], the abundance fitness is -0.448 ± 0.33.
As to KRCPSCQAPIMKNEGCLHMTCAKCNHGFCWRCLKSWKPNHKD [E11M], the abundance fitness was -0.383 ± 0.13.
